For one molecule, Kd results are on record in article PMC5347340 (2017).

Assay [1] deals with BG505 gp140.681.R1-1V6H trimer (HIV-1 BG505, UniProt Q2N0S6). As to the kind of experiment: BLI. (Biolayer interferometry detects binding as a change in optical thickness at a sensor tip.)
Assay [2] addresses BG505 gp140.681.R1-1NOG trimer (HIV-1 BG505, UniProt Q2N0S6). Description: BLI.

As usually defined, the Kd is the constant that tells how readily two partners part at equilibrium. Lower therefore signals a tighter complex.

B1: PGDM1400 (protein)
chain 1: DFVLTQSPHSLSVTPGESASISCKSSHSLIHGDRNNYLAWYVQKPGRSPQLLIYLASSRASGVPDRFSGSGSDKDFTLKISRVETEDVGTYYCMQGRESPWTFGQGTKVDIKRTVAAPSVFIFPPSDEQLKSGTASVVCLLNNFYPREAKVQWKVDNALQSGNSQESVTEQDSKDSTYSLSSTLTLSKADYEKHKVYACEVTHQGLSSPVTKSFNRGEC
chain 2: QAQLVQSGPEVRKPGTSVKVSCKAPGNTLKTYDLHWVRSVPGQGLQWMGWISHEGDKKVIVERFKAKVTIDWDRSTNTAYLQLSGLTSGDTAVYYCAKGSKHRLRDYALYDDDGALNWAVDVDYLSNLEFWGQGTAVTVSSASTKGPSVFPLAPSSKSTSGGTAALGCLVKDYFPEPVTVSWNSGALTSGVHTFPAVLQSSGLYSLSSVVTVPSSSLGTQTYICNVNHKPSNTKVDKKVEPKSCD
Consider B1, for which the results for the dissociation constant (Kd) in assay [1] and in assay [2] were 5.1 nM and 4.7 nM, respectively.
